In PMC6232157, “Human adipose glycerol flux is regulated by a pH gate in AQP10” (Nature Communications, 2018):

Columns and labels:
[1] = target: His80 (UniProt position 80, NVSGAHLNPAF); assay: kinetics (stopped-flow fluorescence transport assay in intact yeast cells); conditions: 23 °C; not stated (50 mM K-citrate buffer); 50 mM K-citrate with 1.4 M sorbitol; osmotic shock with 2.1 M glycerol in 50 mM K-citrate; Channel in the yeast plasma membrane, glycerol gradient applied; pH-gated closed (high pH) to open (low pH) transition
[2] = target: the molecule itself; assay: crystal structure; hanging-drop vapor diffusion at 18 °C, 100 mM MES-NaOH pH 6.0, 19 % PEG 2k MME, 5 % glycerol; entire tetramer in the asymmetric unit; 2.3 Å

Aquaporin-10 (hAQP10), full length (Homo sapiens)
pKa [1]: 5.92 ± 0.20

Aquaporin-10 crystallisation construct (hAQP10cryst) (Homo sapiens; del1-10;del278-301)
pKa [1]: 6.00 ± 0.13

B1: human aquaporin 10, crystallized variant hAQP10_(cryst) (domain or fragment, UniProt Q96PS8 11-277, looked up)
chain: MGHLRIRSLLARQCLAEFLGVFVLMLLTQGAVAQAVTSGETKGNFFTMFLAGSLAVTIAIYVGGNVSGAHLNPAFSLAMCIVGRLPWVKLPIYILVQLLSAFCASGATYVLYHDALQNYTGGNLTVTGPKETASIFATYPAPYLSLNNGFLDQVLGTGMLIVGLLAILDRRNKGVPAGLEPVVVGMLILALGLSMGANCGIPLNPARDLGPRLFTYVAGWGPEVFSAGNGWWWVPVVAPLVGATVGTATYQLLVALHHPEGPEPAQD
notes: human aquaglyceroporin AQP10, truncated in the termini (Δ1–10, Δ278–301): the first 10 and the last 24 amino acids removed; codon-optimized cDNA; His8 stretch fused directly to the C-terminus with no protease site; also called human AQP10; source: S. cerevisiae PAP1500, purified (IMAC, SEC); not shown: His8, C-terminal, kept
stoichiometry N [2]: 4
